From the supplement of paper PMC12667976

B1: library; numbered along this chain (parent)
chain: MATDAALRRLLRLHRTEIAVAVDSAFPLLHALADHDVVPEDKFQETLHLKEKEGCPQAFHALLSWLLTQDSTAILDFWRVLFKDYNLERYGRLQPILDSFPKDVDLSQPRKGRKPPAVPKALVPPPRLPTKRKASEEARAAAPAALTPRGTASPGSQLKAKPPKKPESSAEQQRLPLGNGIQTMSASVQRAVAMSSGDVPGARGAVEGILIQQVFESGGSKKCIQVGGEFYTPSKFEDSGSGKNKARSSSGPKPLVRAKGAQGAAPGGGEARLGQQGSVPAPLALPSDPQLHQKNEDECAVCRDGGELICCDGCPRAFHLACLSPPLREIPSGTWRCSSCLQATVQEVQPRAEEPRPQEPPVETPLPPGLRSAGEEVRGPPGEPLAGMDTTLVYKHLPAPPSAAPLPGLDSSALHPLLCVGPEGQQNLAPGARCGVCGDGTDVLRCTHCAAAFHWRCHFPAGTSRPGTGLRCRSCSGDVTPAPVEGVLAPSPARLAPGPAKDDTASHEPALHRDDLESLLSEHTFDGILQWAIQSMARPAAPFPS

Variants of: B1
Assay: AIRE transcriptional activation functional score (insulin promoter-GFP; nonsense median 0, synonymous median 1) (normalised score); higher = higher AIRE activity (more reporter activation)
Conditions: with insulin promoter-GFP reporter in HEK293
Description: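 Deep mutational scan of full-length human AIRE (codon-optimized cDNA, DT-POPCode NNN libraries over three regions) integrated at a Bxb1 landing pad in HEK293 cells carrying an insulin core promoter-GFP reporter at a Flp-In site. Cells were sorted for the top 10% GFP about 14 days after transfection. Variant frequency log-ratios (select vs non-select, TileSeq) were rescaled so that the nonsense median is 0 and the synonymous median is 1, then averaged over biological replicates.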

AIRE transcriptional activation functional score: each site, then its substitutions
E237: Q 1.03, W 0.832, Y 0.617, R 0.603, K 0.979, V 1.19, C 1.16, I 0.885, T 0.952, P 0.729, D 0.996, G 1.06, M 1.3, F -1.02, A 1.08, S 0.791, L 1.16, H 0.943
S239: P 1.06, C 1.16, V 1.13, L 1.31, H 1.27, W 1.37, M 1.69, R 1.13, G 1.05, E 0.783, F 1.06, K -0.0573, Y 1.43, D 0.131, I 0.737, A 1.2, T 1.17, N 1.4
K235: F 0.827, V 1.45, T 0.985, L 0.897, S 0.877, E 0.408, Y 1.01, Q 1.04, R 1.19, W 1.15, P 1.43, G 1.17, N 0.479, M 1.33, H 0.221, A 0.515, I 0.627, C 1.5
S241: N 1.13, H 0.567, C 1.11, E 1.29, I 1.06, A 0.598, G 0.897, L 1.17, K 0.301, M 1.1, F 1.2, D 1.13, P 1.31
P233: G 1.15, Y 0.576, N 1.51, S 1.01, L 0.385, F -0.0788, D 0.675, I 0.184, C 1.17, Q 0.416, V 0.512, A 1.09, R 1.18, K 0.232, H 1.29, T 1.07
G240: P 0.78, W 1.09, H 0.0803, M 1.08, S 1.1, N 1.96, R 1.01, K 1.07, Y -0.451, V 0.921, L 1.2, F 0.96, A 0.723, E 0.406, C 0.742, T 1.47, I 0.539, Q 0.0726
D238: Y 1.12, C 1.24, R 0.333, T 0.755, I 1.27, L 1.13, E 0.685, Q 0.948, S 0.788, A 1.15, H 1.34, K 0.355, F 1.04, M 0.876, P 1.5, N 0.588, G 1, V 1.23
F236: C 0.925, V 0.877, I 1.01, N 1.68, L 0.651, K 0.0925, P 0.266, Y 0.564, R 0.401, G 0.726, W 1.44, S 0.712, A 1.03, M -0.434, T -0.222
S234: A 1.24, R 1.21, C 1.53, V 1.19, F 1.31, P 1.19, G 1.16, W 0.775, E 0.552, Y 1.11, T 0.61, L 1.04, D -0.22, Q 1.22, K 0.869, I 0.96, M 1.15
T232: G 0.941, Y 0.775, I 0.928, L 1.1, V 1.07, M 1.22, W 0.451, E 1.05, Q 1.38, S 1.15, F -0.0868, P 0.894, N 0.834, R 1.18, K 1.16, H 0.729
